A word on the IC50: it is the concentration at which inhibition is half-maximal. A word on the Kd: it is the constant that tells how readily two partners part at equilibrium.

Data on seven molecules can be found in US20090068109A1 (Janssen / Centocor, published 2009).

Where a chain is given by its changes, count along the chain named.

The target in test [1] is human MCP-1 (human) (UniProt P13500). Put plainly: inhibition of 125I-MCP-1 binding to THP-1 cells (CCR2).
Test [2] shares this target. The test can be described thus: BioVeris (IGEN) solution equilibrium titration.
The target is the same in test [3]. The test can be described thus: cell-based or functional assay.
The target in test [4] is T1, human Eotaxin (human, UniProt P51671 24-97).
T1 construct: also called Eotaxin-1; Eotaxin 1
T1 sequence (P51671 24-97 limits assumed): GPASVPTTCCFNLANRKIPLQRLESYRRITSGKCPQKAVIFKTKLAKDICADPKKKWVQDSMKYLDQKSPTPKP
Put plainly: BioVeris solution equilibrium titration. The method, then: Solution Equilibrium Titration (SET) Method for KD Determination and Cross-Reactivity Studies Using BioVeris. Affinity determination in solution was basically performed as described in the literature (Friguet et al., 1985). In order to improve the sensitivity and accuracy of the SET method, it was transferred from classical ELISA to ECL based BioVeris technology (Haenel et al., 2005, accepted for publication in Analytical Biochemistry). 1 mg/ml goat-anti-human (Fab)₂ or goat-anti-mouse IgG, Fc fragment specific antibodies (Jackson Immuno Research) were labelled with BV-tag™ NHS-Ester (Bioveris Europe, Witney, Oxfordshire, UK) according to manufacturer's instructions. The experiments were carried out in polypropylene microtiter plates and PBS pH 7.4 with 0.5% BSA and 0.02% Tween 20 as assay buffer. Unlabeled antigen was diluted in 4ⁿ series: For human and cyno MCP-1 a concentration range of 10 pM to 40 nM and for cross-reactivity controls (Eotaxin and MCP-2) a concentration range of 40 pM to 160 nM was chosen. Wells without antigen were used to determine Smax values. After addition of 100 pM Fab or IgG (final concentration in 75 μL final volume), the mixture was incubated for 2 hours at RT. Subsequently a mixture of 25 μl Dynabeads (0.4 mg/ml M-280 Streptavidin, DYNAL, Hamburg), coated with 0.25 μg/ml biotinylated MCP-1 (K69) and BV-tag labeled detection antibody in a final dilution of 1:4000 for anti-human Fab or 1:2000 for anti-mouse IgG were added per well. After incubation for 30 min on an Eppendorf shaker (700 rpm) at RT, electrochemiluminescence signals were detected using a M-384 SERIES® Workstation (Bioveris Europe) Data were evaluated with Origin 5.0 (Microcal) software applying customized fitting models (for Fab: Haenel et al., 2005, accepted for publication in Analytical Biochemistry; for IgG: according to Piehler et al., 1997).
Specificity Testing Using BioVeris. Beside the affinity also the specificity, especially the cross-reactivity to Eotaxin and MCP-2, was analyzed in solution equilibrium titration (SET) using BioVeris. No cross-reactivity to human MCP-2 was detectable for any of the selected 16 Fabs and 15 IgGs tested (one of the 16 selected IgGs was not available). As human MCP-1, human MCP-2 binds mainly to the CCR2 receptor, while human Eotaxin predominantly binds to the CCR3 receptor.

Test [5] deals with T2, human MCP-2 (human, UniProt P80075 24-99).
T2 construct: also called CCL8
T2 sequence (looked up): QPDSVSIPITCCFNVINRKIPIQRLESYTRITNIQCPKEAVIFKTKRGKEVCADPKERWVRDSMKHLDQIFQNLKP
The test can be described thus: Biacore, captured IgG. The method, then: (§1) Specificity of Optimized Antibodies in Biacore Antibody Capture Mode (CNTO). Specificity evaluation was performed with selected IgGs. In Biacore 100 nM human MCP-1, human MCP-2, 3, 4 and human Eotaxin 1, 2 and 3 were added to captured optimized antibodies.
In general terms: In SPR one partner is held on a chip, and binding of the other changes the refractive index at the surface.

In test [6] the target is T3, human MCP-3 (human, UniProt P80098 24-99).
T3 construct: also called CCL7
T3 sequence (P80098 24-99 limits assumed): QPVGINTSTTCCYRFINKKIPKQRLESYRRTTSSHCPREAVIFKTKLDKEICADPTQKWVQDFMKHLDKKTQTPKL
The test can be described thus: Biacore, captured IgG. The method, then:
as §1

For test [7], the target named is T4, human Eotaxin-2 (human, UniProt O00175 27-104, limits assumed).
T4 sequence (looked up): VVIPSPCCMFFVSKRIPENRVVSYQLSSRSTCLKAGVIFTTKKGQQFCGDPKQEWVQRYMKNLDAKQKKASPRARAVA
Put plainly: Biacore, captured IgG. The method, then: as §1

The target of test [8] is T5, human MCP-4 (human, UniProt Q99616 24-98).
T5 construct: also called CCL13
T5 sequence (Q99616 24-98 limits assumed): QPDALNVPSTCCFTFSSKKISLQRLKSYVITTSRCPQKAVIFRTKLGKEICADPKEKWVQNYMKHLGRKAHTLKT
Put plainly: Biacore, captured IgG. The method, then:
as §1

The target of test [9] is T6, human Eotaxin-3 (human, UniProt Q9Y258 24-94).
T6 sequence (looked up): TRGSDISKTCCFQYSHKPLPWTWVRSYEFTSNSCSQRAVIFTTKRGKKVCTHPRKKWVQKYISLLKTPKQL
The test can be described thus: Biacore, captured IgG. The method, then:
as §1

The target of test [10] is T7, cynomolgus monkey MCP-1 (cynomolgus monkey, UniProt P61274 24-99).
T7 construct: also called cyno MCP-1; cyno CCL-2
T7 sequence (P61274 24-99 limits assumed): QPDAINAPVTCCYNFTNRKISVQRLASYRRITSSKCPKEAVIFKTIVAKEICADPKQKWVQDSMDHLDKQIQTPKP
Put plainly: Biacore, Fab.

Test [11] deals with T8, human MCP-1 (human, UniProt P13500 24-99).
T8 construct: mature; also called hMCP-1; CCL2
T8 sequence (P13500 24-99): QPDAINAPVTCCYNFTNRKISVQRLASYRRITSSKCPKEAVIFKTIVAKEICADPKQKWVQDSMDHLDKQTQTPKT
The test can be described thus: Biacore, Fab.

Test [12] concerns the target T8, human MCP-1. Put plainly: cell-based or functional assay.
Test [13] concerns the target T8, human MCP-1. Put plainly: inhibition of 125I-MCP-1 binding to THP-1 cells (CCR2).
Test [14] has as its target T2, human MCP-2. Put plainly: Biacore, captured Fab. The method, then:
For the specificity analysis of Fabs, surface plasmone resonance was used (Biacore 3000, Uppsala, Sweden) using the capture assay was used. Fabs were captured and the various proteins (MCP-2, -3, -4 and Eotaxin-1, -2 and -3) were used as analytes. CM5 chips (Biacore, Sweden) were coated with 6500-8000 RU anti-F(ab)₂ (Dianova, Affipure F(ab)₂ fragment goat anti-human IgG, F(ab)₂ fragment specific; 10 mM acetate buffer, pH 4.5) on all 4 flow cells, using standard EDC-NHS amine coupling chemistry. The flow cells 2-4 were captured with specific anti-MCP-1 Fabs (20 μl of 500 nM Fab at a flow rate of […], resulted capture density 300-400RU). After capturing of Fabs, the chemokines were injected (20 μl, flow rate 20 μl/min, PBS pH 7.4) at a concentration of 100 nM. Chemokines were stored in small aliquots and only freshly thawed material with maximum 1 freeze thaw cycle was used for the measurements. To avoid a combination of off rates aroused by the off rate of MCP-1, Fab specific interaction and the anti-Fab/Fab interaction, buffer was injected, to determine the dissociation of anti-Fab/Fab interaction. The achieved buffer sensorgram was subtracted from the specific one. The response units were normalized to the amount of capture antibody onto the surface.

Sequence of human MCP-1 (human) (P13500 24-99): as above

B1: C775 Fab (Fab, from another filing, V domains shown)
VH: QVQLKQSGAELVRPGASVKLSCKASGYTFTDYYINWVKQRPGQGLEWIARIYPGTGNTYYNENFKGKATLTAEKSSSTAYMQLSSLTSEDSAVYFCARSGSTVVGNYYGMDYWGQGTSVTVSS
VL: SIVMTQTPKFLLVSAGDRVSITCKASQSVSNDVAWYQQKPGQSPKLLIYYASNRYTGVPDRFTGSGYGTDFTFTISTVQAEDLAVYFCQQDYSSPWTFGGGTKLEIKR
B1 registered an IC50 in [1] of 35.6 nM. The same molecule displayed a Kd in [2] of 65 nM. Moreover, the Inhibition of Ca2+ Mobilization IC50 in test [3] came to 71.5 nM.

B2: C775 IgG (antibody, from another filing, V domains shown)
VH: B1 VH
VL: B1 VL
In [1], B2 registered an IC50 of 25.6 nM. This molecule also displayed an Inhibition of Ca2+ Mobilization IC50 in [3] of 62.3 nM.

B3: MOR03747 IgG1 (antibody, V domains shown)
VH: QVQLVESGGGLVQPGGSLRLSCAASGFTFRSYGMSWVRQAPGKGLEWVSNIRSDGSYTYYADSVKGRFTISRDNSKNTLYLQMNSLRAEDTAVYYCARFEFTPWTYFDFWGQGTLVTVSS
VL: DIELTQPPSVSVAPGQTARISCSGDNLGKKYVYWYQQKPGQAPVLVIYDDDNRPSGIPERFSGSNSGNTATLTISGTQAEDEADYYCQSYDRFSSTGFGGGTKLTVL
notes: Human IgG1 lambda
Regarding B3, the binding result in test [4] is “no binding (tested: 40 pM to 160 nM)”; in test [5], “no binding (tested: 100 nM)”; in [6], “no binding (tested: 100 nM)”; in [7], “no binding (tested: 100 nM)”; in [8] it was “no binding (tested: 100 nM)”; in test [9], “no binding (tested: 100 nM)”.

B4: MOR03747 Fab (Fab, V domains shown)
VH: B3 VH
VL: B3 VL
notes: HuCAL Fab with C-terminal FLAG and 6xHis tags
Regarding B4, the binding result in test [4] was “no binding (tested: 40 pM to 160 nM)”.

B5: MOR03744 Fab (Fab, V domains shown)
VH: B3 VH
VL: B3 VL with S89T, G97A
notes: as for B4
As for B5, the binding result in test [4] was “no binding (tested: 40 pM to 160 nM)”.

B6: MOR03548 Fab (Fab, V domains shown)
VH: B3 VH
VL: B3 VL with D91T, R92A, F93Q, T96A, G97S
notes: Parental HuCAL GOLD Fab with C-terminal FLAG and 6xHis tags
As for B6, the Kd in test [10] was 54 nM; in test [11] it was 42 nM. Further, the “Ca2+ mobilization IC50” value in test [12] was found to be 124 nM. Further, in test [13], the IC50 came out at 11 nM. Further, the binding result in [14] is reported as “no binding (tested: 100 nM)”.

B7: MOR03744 IgG1 (antibody, V domains shown)
VH: B3 VH
VL: B3 VL with S89T, G97A
notes: Human IgG1 lambda
For the molecule B7, the binding result in [4] is “no binding (tested: 40 pM to 160 nM)”; in test [5], “no binding (tested: 100 nM)”; in [6] it was “no binding (tested: 100 nM)”; in test [7], “no binding (tested: 100 nM)”; in test [8], “no binding (tested: 100 nM)”; in test [9], “no binding (tested: 100 nM)”.
